Values quoted from earlier work in PMC11036797.

What was measured:
CSPG4 (Homo sapiens) = CSPG4 (Homo sapiens) (UniProt Q6UVK1)
FZD7 (Homo sapiens) = FZD7 (Homo sapiens) (UniProt O75084)
FZD1 (Homo sapiens) = FZD1 (Homo sapiens) (UniProt Q9UP38)
nectin-3 (Homo sapiens) = nectin-3 (Homo sapiens) (UniProt Q9NQS3)
FZD2 (Homo sapiens) = FZD2 (Homo sapiens) (UniProt Q14332)
Sequence of FZD2 (Homo sapiens) (Q14332 24-565): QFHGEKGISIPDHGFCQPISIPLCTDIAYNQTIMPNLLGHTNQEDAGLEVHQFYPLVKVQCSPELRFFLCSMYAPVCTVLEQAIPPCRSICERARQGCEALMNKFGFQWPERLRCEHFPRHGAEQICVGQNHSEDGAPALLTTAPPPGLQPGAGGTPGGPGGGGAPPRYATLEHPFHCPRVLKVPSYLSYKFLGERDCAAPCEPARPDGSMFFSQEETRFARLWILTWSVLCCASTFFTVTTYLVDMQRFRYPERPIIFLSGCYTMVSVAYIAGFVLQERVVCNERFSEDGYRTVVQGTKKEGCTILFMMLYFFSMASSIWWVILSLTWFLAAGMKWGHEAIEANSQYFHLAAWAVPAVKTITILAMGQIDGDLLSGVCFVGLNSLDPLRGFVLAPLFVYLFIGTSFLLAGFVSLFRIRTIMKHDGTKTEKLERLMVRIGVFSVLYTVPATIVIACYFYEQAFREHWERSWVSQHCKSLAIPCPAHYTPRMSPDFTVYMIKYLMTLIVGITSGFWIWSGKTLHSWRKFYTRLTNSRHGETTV

Sequence of nectin-3 (Homo sapiens) (Q9NQS3 58-549): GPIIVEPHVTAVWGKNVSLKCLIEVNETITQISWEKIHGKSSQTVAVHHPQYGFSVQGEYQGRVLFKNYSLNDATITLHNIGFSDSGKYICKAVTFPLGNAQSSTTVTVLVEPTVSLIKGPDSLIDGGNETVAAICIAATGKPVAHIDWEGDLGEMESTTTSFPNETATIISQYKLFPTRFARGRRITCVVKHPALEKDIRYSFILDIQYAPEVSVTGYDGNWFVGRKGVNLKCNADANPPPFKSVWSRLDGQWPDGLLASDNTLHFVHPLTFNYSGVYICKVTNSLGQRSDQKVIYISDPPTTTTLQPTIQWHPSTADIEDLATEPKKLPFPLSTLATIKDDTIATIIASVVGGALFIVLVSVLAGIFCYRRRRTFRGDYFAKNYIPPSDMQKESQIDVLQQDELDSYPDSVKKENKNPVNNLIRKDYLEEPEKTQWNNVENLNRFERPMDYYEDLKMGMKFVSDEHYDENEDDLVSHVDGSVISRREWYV
Sequence of CSPG4 (Homo sapiens) (Q6UVK1 30-2322): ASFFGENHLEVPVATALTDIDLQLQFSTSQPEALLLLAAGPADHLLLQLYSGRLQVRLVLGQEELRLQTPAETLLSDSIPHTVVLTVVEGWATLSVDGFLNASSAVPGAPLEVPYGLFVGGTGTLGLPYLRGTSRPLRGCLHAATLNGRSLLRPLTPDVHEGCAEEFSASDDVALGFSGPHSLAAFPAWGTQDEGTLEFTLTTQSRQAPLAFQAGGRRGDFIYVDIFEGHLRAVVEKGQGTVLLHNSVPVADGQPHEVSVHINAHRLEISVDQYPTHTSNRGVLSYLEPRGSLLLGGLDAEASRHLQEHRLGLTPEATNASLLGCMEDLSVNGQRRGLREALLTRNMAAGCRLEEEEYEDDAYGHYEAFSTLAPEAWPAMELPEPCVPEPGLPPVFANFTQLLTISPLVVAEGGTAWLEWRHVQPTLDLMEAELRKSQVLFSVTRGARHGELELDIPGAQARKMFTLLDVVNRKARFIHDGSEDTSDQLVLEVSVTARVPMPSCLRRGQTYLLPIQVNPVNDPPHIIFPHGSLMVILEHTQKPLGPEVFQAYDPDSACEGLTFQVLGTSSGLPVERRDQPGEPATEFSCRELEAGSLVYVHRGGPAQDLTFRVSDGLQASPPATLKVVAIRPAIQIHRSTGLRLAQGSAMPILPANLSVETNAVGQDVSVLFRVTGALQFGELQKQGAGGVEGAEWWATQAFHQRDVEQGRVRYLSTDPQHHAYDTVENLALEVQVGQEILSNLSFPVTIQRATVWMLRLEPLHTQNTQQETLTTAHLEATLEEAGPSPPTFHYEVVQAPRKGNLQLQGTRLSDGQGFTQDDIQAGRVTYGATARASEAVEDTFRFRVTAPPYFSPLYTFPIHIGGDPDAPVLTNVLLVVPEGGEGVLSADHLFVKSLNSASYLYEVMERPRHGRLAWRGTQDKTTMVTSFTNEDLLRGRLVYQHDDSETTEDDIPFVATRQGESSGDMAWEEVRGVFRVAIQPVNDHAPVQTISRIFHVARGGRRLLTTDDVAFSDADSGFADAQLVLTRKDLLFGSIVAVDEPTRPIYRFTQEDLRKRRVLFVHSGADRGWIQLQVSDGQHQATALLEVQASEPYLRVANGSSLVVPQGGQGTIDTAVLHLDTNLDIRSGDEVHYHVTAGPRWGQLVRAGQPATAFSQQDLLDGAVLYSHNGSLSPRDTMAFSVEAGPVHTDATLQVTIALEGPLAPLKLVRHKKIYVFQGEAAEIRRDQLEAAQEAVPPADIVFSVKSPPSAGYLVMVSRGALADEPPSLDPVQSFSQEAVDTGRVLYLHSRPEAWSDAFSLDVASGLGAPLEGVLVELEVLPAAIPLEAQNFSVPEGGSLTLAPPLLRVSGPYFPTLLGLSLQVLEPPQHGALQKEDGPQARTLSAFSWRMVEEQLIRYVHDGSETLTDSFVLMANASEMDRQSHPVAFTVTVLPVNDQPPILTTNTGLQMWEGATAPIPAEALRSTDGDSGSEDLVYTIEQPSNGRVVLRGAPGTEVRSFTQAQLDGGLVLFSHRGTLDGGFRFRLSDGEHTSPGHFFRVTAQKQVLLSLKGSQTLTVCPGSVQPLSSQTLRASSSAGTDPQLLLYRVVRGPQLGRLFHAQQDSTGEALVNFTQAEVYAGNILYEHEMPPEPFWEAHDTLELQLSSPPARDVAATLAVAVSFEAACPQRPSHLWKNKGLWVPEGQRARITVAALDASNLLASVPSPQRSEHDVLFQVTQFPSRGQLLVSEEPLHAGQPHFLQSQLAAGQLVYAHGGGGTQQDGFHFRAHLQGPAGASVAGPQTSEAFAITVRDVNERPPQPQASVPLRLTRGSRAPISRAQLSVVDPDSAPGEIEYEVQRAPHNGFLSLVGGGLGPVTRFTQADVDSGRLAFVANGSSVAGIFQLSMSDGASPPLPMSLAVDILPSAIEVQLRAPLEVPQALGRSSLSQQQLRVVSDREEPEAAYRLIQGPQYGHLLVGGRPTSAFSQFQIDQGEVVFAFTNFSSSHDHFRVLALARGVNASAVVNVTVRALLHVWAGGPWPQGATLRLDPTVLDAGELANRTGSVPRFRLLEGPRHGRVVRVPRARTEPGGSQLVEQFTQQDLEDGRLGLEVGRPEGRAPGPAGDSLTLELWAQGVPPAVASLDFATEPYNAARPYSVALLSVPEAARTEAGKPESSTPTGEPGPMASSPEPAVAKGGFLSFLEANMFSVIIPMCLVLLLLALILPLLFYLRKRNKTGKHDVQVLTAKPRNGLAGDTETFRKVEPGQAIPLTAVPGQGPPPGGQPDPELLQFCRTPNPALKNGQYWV
Sequence of FZD1 (Homo sapiens) (Q9UP38 70-647): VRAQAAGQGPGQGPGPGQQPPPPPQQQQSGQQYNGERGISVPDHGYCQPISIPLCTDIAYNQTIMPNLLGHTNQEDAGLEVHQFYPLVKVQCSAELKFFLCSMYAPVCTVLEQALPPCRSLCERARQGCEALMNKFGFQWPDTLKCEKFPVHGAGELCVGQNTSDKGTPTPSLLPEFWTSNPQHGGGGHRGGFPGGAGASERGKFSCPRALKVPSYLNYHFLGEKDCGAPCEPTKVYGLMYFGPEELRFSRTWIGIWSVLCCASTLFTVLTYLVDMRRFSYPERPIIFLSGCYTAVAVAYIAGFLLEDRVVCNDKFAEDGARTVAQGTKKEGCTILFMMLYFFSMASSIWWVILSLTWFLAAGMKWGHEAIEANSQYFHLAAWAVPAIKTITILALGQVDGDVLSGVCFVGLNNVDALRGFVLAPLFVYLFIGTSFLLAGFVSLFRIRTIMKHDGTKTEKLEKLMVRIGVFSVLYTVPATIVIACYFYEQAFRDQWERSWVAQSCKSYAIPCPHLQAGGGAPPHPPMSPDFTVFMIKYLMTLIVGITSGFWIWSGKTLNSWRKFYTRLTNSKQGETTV

## TcdB1 (from UniProt P18177)
CSPG4 (Homo sapiens)
  Kd: 0.0152 µM
FZD7 (Homo sapiens)
  Kd: 0.027 µM
FZD1 (Homo sapiens)
  Kd: 0.032 µM
nectin-3 (Homo sapiens)
  Kd: 0.053 µM
FZD2 (Homo sapiens)
  Kd: 0.019 µM
